Source: patent US20260234738A1

Columns and labels:
[1] = molecular target: full-length SARS-COV-2 spike protein (amino acids M1-T1273 of NCBI accession number YP_009724390.1) (SARS-CoV-2) (UniProt P0DTC2); test: cell-based or functional assay
[2] = molecular target: high affinity human FcγR3a 176Val allotype receptor (human) (UniProt P08637); test: cell-based or functional assay
Bt-MERS.hFc (mAb2664-L2) = test: Luminex beads, supernatant
MERS.hFc (mAb2664-L1) = test: Luminex beads, supernatant
MERS.mFc (mAb2663-L1) = test: Luminex beads, supernatant
[3] = molecular target: MOD1-SARS-CoV-2 Spike Protein (RBD)(R319-F541).mmH (SARS-CoV-2); test: Luminex bead binding, antibody supernatant
[4] = molecular target: MOD10-SARS-CoV-2 Spike Protein (RBD)(R319-F541).mmH (SARS-CoV-2); test: Luminex bead binding, antibody supernatant
[5] = molecular target: MOD11-SARS-CoV-2 Spike Protein (RBD)(R319-F541).mmH (SARS-CoV-2); test: Luminex bead binding, antibody supernatant
[6] = molecular target: MOD12-SARS-CoV-2 Spike Protein (RBD)(R319-F541).mmH (SARS-CoV-2); test: Luminex bead binding, antibody supernatant
[7] = molecular target: MOD13-SARS-CoV-2 Spike Protein (RBD)(R319-F541).mmH (SARS-CoV-2); test: Luminex bead binding, antibody supernatant
[8] = molecular target: MOD14-SARS-CoV-2 Spike Protein (RBD)(R319-F541).mmH (SARS-CoV-2); test: Luminex bead binding, antibody supernatant
[9] = molecular target: MOD15-SARS-CoV-2 Spike Protein (RBD)(R319-F541).mmH (SARS-CoV-2); test: Luminex bead binding, antibody supernatant
[10] = molecular target: MOD2-SARS-CoV-2 Spike Protein (RBD)(R319-F541).mmH (SARS-CoV-2); test: Luminex bead binding, antibody supernatant
[11] = molecular target: MOD3-SARS-CoV-2 Spike Protein (RBD)(R319-F541).mmH (SARS-CoV-2); test: Luminex bead binding, antibody supernatant
[12] = molecular target: MOD4-SARS-CoV-2 Spike Protein (RBD)(R319-F541).mmH (SARS-CoV-2); test: Luminex bead binding, antibody supernatant
[13] = molecular target: MOD5-SARS-CoV-2 Spike Protein (RBD)(R319-F541).mmH (SARS-CoV-2); test: Luminex bead binding, antibody supernatant
[14] = molecular target: MOD6-SARS-CoV-2 Spike Protein (RBD)(R319-F541).mmH (SARS-CoV-2); test: Luminex bead binding, antibody supernatant
[15] = molecular target: MOD7-SARS-CoV-2 Spike Protein (RBD)(R319-F541).mmH (SARS-CoV-2); test: Luminex bead binding, antibody supernatant
[16] = molecular target: MOD8-SARS-CoV-2 Spike Protein (RBD)(R319-F541).mmH (SARS-CoV-2); test: Luminex bead binding, antibody supernatant
[17] = molecular target: MOD9-SARS-CoV-2 Spike Protein (RBD)(R319-F541).mmH (SARS-CoV-2); test: Luminex bead binding, antibody supernatant
[18] = molecular target: SARS-CoV-2 spike protein, Wuhan-Hu-1 sequence (S-wt), on VSV pseudoparticles (SARS-CoV-2) (UniProt P0DTC2); test: cell-based or functional assay
[19] = molecular target: Bt-SARS-CoV-2 Spike Protein (RBD) (R319-F541).mFc (column 6 of Table 8) (SARS-CoV-2); test: Luminex beads, supernatant

Chain of high affinity human FcγR3a 176Val allotype receptor (human) (P08637 17-254 F176V): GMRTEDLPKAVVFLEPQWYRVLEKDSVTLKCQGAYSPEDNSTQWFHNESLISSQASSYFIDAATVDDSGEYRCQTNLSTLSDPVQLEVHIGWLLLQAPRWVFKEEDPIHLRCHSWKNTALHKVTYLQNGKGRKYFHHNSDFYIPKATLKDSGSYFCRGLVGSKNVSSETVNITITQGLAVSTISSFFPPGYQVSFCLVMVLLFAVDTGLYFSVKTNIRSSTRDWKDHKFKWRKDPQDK

Substance	ADCC (Activity (%)) [2]	ADCC Mean RLU [2]	MFI (MERS.mFc (mAb2663-L1))	binding signal (MFI) [4]	binding signal (MFI) [5]	binding signal (MFI) [6]	binding signal (MFI) [8]	binding signal (MFI) [9]	binding signal (MFI) [10]	binding signal (MFI) [11]	binding signal (MFI) [12]	binding signal (MFI) [13]	binding signal (MFI) [14]	binding signal (MFI) [15]	binding signal (MFI) [16]	binding signal (MFI) [17]	also measured
IgG1 Control (antibody)																	ADCP Max (% ADCP), Jurkat/hCD20/SARS-CoV-2 Spike cells [1]: 10.4%
mAb10933 (antibody)	68.5%	9740 RLU	22 MFI														MFI (Bt-MERS.hFc (mAb2664-L2)): 26 MFI; MFI (MERS.hFc (mAb2664-L1)): 21 MFI
mAb10934 (antibody)		11700 RLU	77 MFI	30400 MFI	30700 MFI	32900 MFI	28600 MFI	27800 MFI	27700 MFI	25100 MFI	31700 MFI	6650 MFI	30800 MFI	29900 MFI	6410 MFI	31300 MFI	binding signal (MFI) [3]: 81 MFI; binding signal (MFI) [7]: 30500 MFI
mAb10987 (antibody)	29.4%	12000 RLU															Relative neutralization at 5 µg/ml [18]: 100%
mAb10989 (antibody)	21.5%	10200 RLU		15500 MFI	16800 MFI	15100 MFI	18100 MFI	15900 MFI	16700 MFI	18300 MFI	15800 MFI	3370 MFI	19600 MFI	15200 MFI	6140 MFI	17800 MFI	MFI [19]: 16100 MFI
